This note sets out measurements from patent CN110642952A (SHANGHAI INST OF BIOLOGICAL PRODUCTS CO LTD, dated 2020).

Changes are numbered by the printed parent chain.

B1: HER3鼠源单克隆抗体993 (antibody, V domains shown)
VH: EVKLVESGGGLVKPGGSLKLSCAASGFTFSSYSLSWVRQTPEKRLEWVASITFGGTAYYSDSVKGRFTISRDNARNILYLQMSSLKSEDTAMYYCVRGDGYEDPMDYWGQGTSVTVSS
VL: DIVMTQTTVSLAVSLGQRATISCRASESVDSYGKSFMHWYQQKPGQPPKLLIYRASNLESGIPARFSGSGSRTDFTLTINPVEADDVSTYYCQQSNEDPYTFGGGTKLEIR
notes: Mouse monoclonal antibody from hybridoma ascites, purified on protein G; also called HER3抗体993
B2: HER3鼠源单克隆抗体1044 (antibody, V domains shown)
VH: EVQLQQSGTELMKPGASVKISCKATGGTFSNYWIDWVKQRPGHGLEWIGEILPGSGGTDYNEKFKGKATFTADTSSNTAYMQLSSLTSEDSAVYYCARDDYDVFAYWGQGTLVTVSS
VL: DIVMTQAAFSNPVTLGTSASISCRSSKSLLHSNGITYLYWYLQKPGQSPQLLIYQMSNLASGVPDRFSSSGSGTDFTLRISRVEAEDVGVYYCAQNLELPWTFGGGTKLEIKR
notes: Mouse monoclonal antibody from hybridoma ascites, purified on protein G; also called HER3抗体1044
B3: HER3鼠源单克隆抗体927 (antibody, V domains shown)
VH: EVQLQQSGPELVKPGASVKISCKASGYSFTSYYIHWVKQRPGQGLEWIGWIFPRSGHTNYNEKFKGKATLTADTSSSTAYMQVSSLTSEDSAVYFCARSRDYYGTNAMDYWGQGTSVTVSS
VL: DIVMTQSPSSLTVTAGEKVTMSCKSSQSLFNSGNQKNYLTWYQQKPGQPPKLLIYWASTRESGVPDRFTGSGSGTDFTLTISSVQAEDLAVYYCQNDYSYPYTFGGGTKLEIKR
notes: Mouse monoclonal antibody from hybridoma ascites, purified on protein G; also called HER3抗体927
B4: HER3鼠源单克隆抗体1050 (antibody, V domains shown)
VH: B3 VH with E1Q, R54G, N59K, Y60C, K63N, G66A, V83L, T105S, M108V
VL: B3 VL with F30L, T69S
notes: Mouse monoclonal antibody from hybridoma ascites, purified on protein G; also called HER3抗体1050

The first assay deals with T1, HER3 (human, UniProt P21860 20-643, limits assumed).
T1 construct: also called HER3抗原; HER3蛋白
T1 sequence (P21860 20-643 limits assumed): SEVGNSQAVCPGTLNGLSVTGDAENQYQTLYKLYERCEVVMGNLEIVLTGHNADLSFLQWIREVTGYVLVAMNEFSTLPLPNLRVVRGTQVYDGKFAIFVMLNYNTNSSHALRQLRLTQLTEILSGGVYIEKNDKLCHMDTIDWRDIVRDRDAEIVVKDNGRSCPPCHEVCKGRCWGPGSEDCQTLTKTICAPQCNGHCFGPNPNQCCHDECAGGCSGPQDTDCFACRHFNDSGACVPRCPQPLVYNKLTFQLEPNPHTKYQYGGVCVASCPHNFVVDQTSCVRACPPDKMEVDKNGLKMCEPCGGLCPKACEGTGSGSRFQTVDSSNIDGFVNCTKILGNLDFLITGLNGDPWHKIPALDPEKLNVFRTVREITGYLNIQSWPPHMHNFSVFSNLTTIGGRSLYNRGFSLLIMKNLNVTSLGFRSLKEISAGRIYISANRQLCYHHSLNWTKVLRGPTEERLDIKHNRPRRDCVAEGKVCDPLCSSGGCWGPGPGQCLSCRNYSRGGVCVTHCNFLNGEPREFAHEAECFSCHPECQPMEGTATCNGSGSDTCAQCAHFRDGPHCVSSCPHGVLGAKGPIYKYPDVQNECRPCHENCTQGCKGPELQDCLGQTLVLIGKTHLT
Description: ProteOn XPR36 Protein Interaction Array System (SPR).
As a reminder, the Kd is a measure of binding affinity in units of concentration. A low value points to tighter binding. With B1, binding was characterised by a dissociation constant (Kd) of 0.166 nM.

For B2, the affinity, expressed as Kd, was 0.525 nM.

In turn, B3 yielded a dissociation constant Kd of 4.13 nM.

With B4, the Kd is 5.83 nM.

A further assay deals with T2, HER3-ECD融合蛋白 (human).
T2 construct: also called HER3-ECD fusion protein
Description: competition ELISA: Trx-HRG coated (10 μg/ml), HER3-ECD fusion protein 1 μg/ml pre-incubated with antibody, anti-hGH detection. On the technique in general: ELISA stands for enzyme-linked immunosorbent assay.
A word on the IC50: it is the point on the concentration scale where inhibition reaches its midpoint. For B1, the IC50 is 0.3 nM.

Consider B2, for which the IC50 amounted to 2.3 nM.

B3 yielded a concentration for half-maximal inhibition (IC50) of 1.5 nM.

Molecule B4 showed a half-maximal inhibitory concentration (IC50) of 2.8 nM.
